Percent of S. aureus binding to IgG and stoichiometry N data for 3 substances are collected here from article PMC10986000.

Experiment [1] addresses protein A (SpA) on the surface of S. aureus HG001 (S. aureus (endogenous in HG001)) (UniProt P02976). Briefly: flow cytometry on cells; about 10^5 CFU S. aureus HG001 (also HG001ΔprsA and HG001ΔprsA(pGHL-PrsA)) in 2% BSA-PBS incubated with mouse IgG at 37 °C for 30 min, then FITC-conjugated anti-mouse IgG at 4 °C for 30 min; percent bound relative to the unstained population.
Chain of UniProt P02976 (P02976 37-485): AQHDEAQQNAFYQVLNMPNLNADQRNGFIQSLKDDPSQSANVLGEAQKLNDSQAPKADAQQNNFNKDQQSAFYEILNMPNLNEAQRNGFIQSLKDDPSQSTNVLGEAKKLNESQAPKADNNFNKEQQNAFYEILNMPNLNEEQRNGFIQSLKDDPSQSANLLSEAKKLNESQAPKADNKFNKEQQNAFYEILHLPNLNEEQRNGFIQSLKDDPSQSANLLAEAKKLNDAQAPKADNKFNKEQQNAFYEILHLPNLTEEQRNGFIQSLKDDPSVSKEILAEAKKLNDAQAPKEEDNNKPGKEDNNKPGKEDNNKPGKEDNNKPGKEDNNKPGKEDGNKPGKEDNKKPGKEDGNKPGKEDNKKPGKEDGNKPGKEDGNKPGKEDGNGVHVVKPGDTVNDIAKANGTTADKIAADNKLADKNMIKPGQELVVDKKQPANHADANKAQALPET

Experiment [2] concerns the target full-length His-tagged PrsA (amino acid 1 to 320) (S. aureus HG001). Briefly: cross-linking; E. coli BL21(DE3) cells expressing His-PrsA, D3 or D4 treated with 1% formaldehyde, 5 min, room temperature, 0.1 M sodium phosphate pH 6.8; His-tagged proteins purified on Ni-NTA; SDS-PAGE after 37 °C or 95 °C, Coomassie, immunoblot, LC-MS/MS of bands. Background: In western blotting, separated proteins are transferred to a membrane and probed.

Experiment [3] addresses His-PrsA truncated mutant D3 (amino acids 1 to 146 and 251 to 320; PPIase domain deleted) (S. aureus HG001). Described as above.

In turn, mouse immunoglobulin IgG had a percent of S. aureus binding to IgG in experiment [1] of 41.8%.

As a reminder, the stoichiometry N is the number of molecules, sites or subunits per partner or assembly. Consider “full-length His-tagged PrsA (amino acid 1 to 320) (natural protein)”, for which the stoichiometry N in experiment [2] came to 2. “His-PrsA truncated mutant D3 (amino acids 1 to 146 and 251 to 320; PPIase domain deleted) (domain or fragment)” yielded a stoichiometry N in experiment [3] of 2.
